This is an account of results in patent US20240417469A1 (CONCEPT TO MEDICINE BIOTECH, published 2024).

B1: SP34 monoclonal antibody (antibody, human IgG1, lambda, N297A, V domains shown)
VH: EVQLVESGGGLVQPKGSLKLSCAASGFTFNTYAMNWVRQAPGKGLEWVARIRSKYNNYATYYADSVKDRFTISRDDSQSILYLQMNNLKTEDTAMYYCVRHGNFGNSYVSWFAYWGQGTLVTVSA
VL: QAVVTQESALTTSPGETVTLTCRSSTGAVTTSNYANWVQEKPDHLFTGLIGGTNKRAPGVPARFSGSLIGDKAALTITGAQTEDEAIYFCALWYSNLWVFGGGTKLTVLG
notes: also called SP34 (Biointron, B6762)
B2: Hu155A9B1-12 (antibody, V domains shown)
VH: EVQLQESGPGLVKPSETLSLTCTVSGFSLTSYNVHWVRQPPGKGLEWMGRVRYNGDTSYNSALKSRLTISRDTSKNQASLKLSSVTAADTAVYYCTRGPYGGSSEPLFDYWGQGTMVTVSS
VL: DIQMTQSPSSLSASVGDRVTITCKASQNINKYLNWFQQKPGKAPRLLIYTTNNLQTGIPSRFSGSGSGTDFTLTISSLQPEDFATYYCLQHNSGYTFGQGTKLEIK
notes: humanized mAb
B3: Hu155A9B1-3 (antibody, V domains shown)
VH: B2 VH with F27G, L29I, T30S, A78F, T96A
VL: B2 VL with F36Y, I58V
notes: humanized mAb
B4: Hu155A9B1-6 (antibody, V domains shown)
VH: B2 VH
VL: B2 VL with F36Y, I58V
notes: humanized mAb
B5: Hu155A9B1-17 (antibody, V domains shown)
VH: B2 VH with L29I, T30S
VL: B2 VL with Y87F
notes: humanized mAb
B6: Hu155A9B1-15 (antibody, V domains shown)
VH: B2 VH with F27G, L29I, T30S, A78F, T96A
VL: B2 VL with Y87F
notes: humanized mAb
B7: Hu155A9B1-13 (antibody, V domains shown)
VH: B2 VH with F27G, L29I, T30S, V37I, M48I, L67V, R71V, A78F, T96A
VL: B2 VL with Y87F
notes: humanized mAb
B8: Hu155A9B1-14 (antibody, V domains shown)
VH: B2 VH with F27G, L29I, T30S, M48I, L67V, A78F, T96A
VL: B2 VL with Y87F
notes: humanized mAb
B9: Hu155A9B1-18 (antibody, V domains shown)
VH: B2 VH
VL: B2 VL with Y87F
notes: humanized mAb
B10: Hu155A9B1-16 (antibody, V domains shown)
VH: B2 VH with F27G, L29I, T30S, A78F
VL: B2 VL with Y87F
notes: humanized mAb; also called 155z16
B11: 192A7B9 chimeric mAb (antibody, V domains shown)
VH: QVQLKESGPGLVQPSQTLSLNCTVSGFSLTSYNVHWVRQPPGKGLEWMGRMRYNGDTSYNSALKSRLSISRDTSKNQVFLKMNSLQTDDTGTYYCTRGPRGGYYSALFDYWGQGVMVTVSS
VL: DIQMTQSPSFLSASVGDRVTINCKASQNINRYLNWYQQKLGDAPKVLISIANSLQTGIPSRFSGSGSGTDFTLTISSLQPEDVATYFCLQHNSWYTFGAGTKLELK
notes: Chimeric mAb
B12: 155A9B1 chimeric mAb (antibody, V domains shown)
VH: B11 VH with N21T, M51V, V78A, T87I, R100Y, Y103S, Y104S, S105E, A106P
VL: B2 VL with Q3K, S10F, T22N, P40L, K42E, F83V, Y87F, Q99A, I105L
notes: Chimeric mAb
B13: 153A6B1 chimeric mAb (antibody, V domains shown)
VH: B11 VH with N21T, V34I, M51I, N83S, R100Y, Y103S, Y104R, S105E, A106P
VL: DIKMTQSPSFLSAAVGDRVTINCKTSQNINKYLNWFQQKLGAAPKLLIYTTNNLQTGIPSRFSGSGSGTDFTLTISSLQPEDVATYFCLQHGSGYTFGAGTKLELK
notes: Chimeric mAb of the hybridoma clone; also called 153A6B1C8

Numbering of substitutions follows the chain as printed. Values joined by “and” are separate entries in the source; they are usually repeats but may differ in a detail not shown here. Equal values may be shown once. A value given as a limit tells only on which side of the number the result lay.

T1 sequence (P07766 23-207, chain 1 of 3): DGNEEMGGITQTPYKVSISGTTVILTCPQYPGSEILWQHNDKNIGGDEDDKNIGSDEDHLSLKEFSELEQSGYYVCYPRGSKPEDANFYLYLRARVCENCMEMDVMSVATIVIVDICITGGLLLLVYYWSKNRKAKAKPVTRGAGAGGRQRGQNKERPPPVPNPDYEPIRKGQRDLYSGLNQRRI
T1 sequence (P04234 22-171, chain 2 of 3): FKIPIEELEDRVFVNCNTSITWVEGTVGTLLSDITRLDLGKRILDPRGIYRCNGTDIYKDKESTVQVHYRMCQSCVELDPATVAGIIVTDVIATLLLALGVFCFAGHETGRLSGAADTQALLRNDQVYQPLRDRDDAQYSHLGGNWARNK
T1 sequence (P09693 23-182, chain 3 of 3): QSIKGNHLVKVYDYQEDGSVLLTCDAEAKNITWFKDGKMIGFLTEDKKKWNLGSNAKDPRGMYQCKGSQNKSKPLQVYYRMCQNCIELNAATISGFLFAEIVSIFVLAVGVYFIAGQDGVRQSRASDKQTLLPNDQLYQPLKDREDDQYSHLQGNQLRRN
T3 sequence (Q95LI5 22-117, chain 1 of 2): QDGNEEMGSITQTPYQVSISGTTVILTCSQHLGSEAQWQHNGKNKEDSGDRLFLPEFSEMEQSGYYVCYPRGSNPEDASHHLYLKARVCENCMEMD
T3 sequence (Q95LI8 22-105, chain 2 of 2, further chain): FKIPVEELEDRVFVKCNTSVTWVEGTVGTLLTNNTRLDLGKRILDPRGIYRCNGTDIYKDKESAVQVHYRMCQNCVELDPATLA

The first assay concerns the target T1, human CD3 on cells (human PBMC; Jurkat TCR/CD3 NFAT reporter cells) (human, UniProt P07766 23-207; P04234 22-171; P09693 23-182). The experiment in a line: cell-based or functional assay.
On to B1, for which the “% of SP34” value was determined as 100%.

With B2, the “% of SP34” value was found to be 72.4% and the Emax was 4160.

As to B3, the “% of SP34” value stood at 12.8% and the Emax came to 648.

With B4, the “% of SP34” value turned out to be 84.8% and the Emax was 4300.

On to B5, for which the “% of SP34” value is 76% and the Emax worked out at 4370.

For the molecule B6, the “% of SP34” value came to 20.1% and the Emax turned out to be 1150.

With B7, the “% of SP34” value came to 18.4% and the Emax is 1060.

Take B8: the “% of SP34” value was 19.1% and the Emax turned out to be 1100.

For B9, the “% of SP34” value was 74% and the Emax came to 4250.

As for B10, the “% of SP34” value stood at 21.6% and the Emax was 1240.

The target in another assay is T1, human CD3 on cells (human PBMC; Jurkat …). Nature of the assay: cell-based or functional assay. The source holds these as a separate data set.
Turning to B2, the “CD3-NFAT Activity by CD3 mAb” value was greater than 50 % SP34.

On to B3, for which the “CD3-NFAT Activity by CD3 mAb” value was no more than 50 % SP34.

Turning to B4, the “CD3-NFAT Activity by CD3 mAb” value was greater than 50 % SP34.

In the case of B5, the “CD3-NFAT Activity by CD3 mAb” value was greater than 50 % SP34.

Turning to B6, the “CD3-NFAT Activity by CD3 mAb” value was no more than 50 % SP34.

On to B7, for which the “CD3-NFAT Activity by CD3 mAb” value was no more than 50 % SP34.

Take B8: the “CD3-NFAT Activity by CD3 mAb” value is no more than 50 % SP34.

As for B9, the “CD3-NFAT Activity by CD3 mAb” value is greater than 50 % SP34.

On to B10, for which the “CD3-NFAT Activity by CD3 mAb” value was no more than 50 % SP34.

A further assay deals with T2, human CD3 protein (human, UniProt P07766 23-126; P04234 22-105).
T2 construct: ELISA coating protein; also called Human CD3D & CD3E Heterodimer Protein
T2 sequence (P07766 23-126 limits assumed, chain 1 of 2): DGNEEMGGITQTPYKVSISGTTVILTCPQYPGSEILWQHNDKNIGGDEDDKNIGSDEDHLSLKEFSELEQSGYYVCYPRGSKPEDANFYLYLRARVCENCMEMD
T2 sequence (P04234 22-105 limits assumed, chain 2 of 2): as the sequence (Q95LI8 22-105, chain 2 of 2, further chain) above, with V5I, K15N, V20I, T32S, N33D, N34I, A64T, N74S, L83V counted along it
Nature of the assay: ELISA, plate-coated CD3. A general note: In an ELISA, binding on a coated surface is turned into a signal by an enzyme label.
What is called EC50 is the midpoint of the concentration-response curve. For B11, the midpoint of the response, the EC50, lay at 1.91 ng/mL.

On to B1, for which it took 6.48 ng/mL to reach a half-maximal effect (EC50).

B12 came in with an EC50 of 2.15 ng/mL. This EC50 lies about 3-fold lower than the previous one.

As to B13, a half-maximal response (EC50) required 2.79 ng/mL.

A further assay concerns the target T3, cynomolgus CD3 protein (cynomolgus).
T3 construct: ELISA coating protein
The experiment in a line: ELISA, plate-coated CD3.
In turn, B11 displayed an EC50 of 2.16 ng/mL.

As to B1, the concentration for a half-maximal effect (EC50) came out at 6.18 ng/mL.

Regarding B12, the EC50 came to 2.33 ng/mL.

B13 showed a half-maximal effective concentration (EC50) of 2.88 ng/mL.

Another assay deals with T2, human CD3 protein. Nature of the assay: ELISA, plate-coated CD3. The source holds these as a separate data set.
For B11, the EC50 is 2.53 ng/mL and 2.85 ng/mL and 2.16 ng/mL and 2.3 ng/mL.

In the case of B2, the concentration for a half-maximal effect (EC50) is 3.35 ng/mL.

In the case of B12, the concentration giving a half-maximal response (EC50) was 2.7 ng/mL and 2.54 ng/mL and 2.34 ng/mL.

For the molecule B3, the EC50 was 32.2 ng/mL.

For B4, the response was half-maximal at 4.16 ng/mL (EC50).

As for B5, the half-maximal effective concentration (EC50) turned out to be 3.07 ng/mL.

With B6, the EC50 was 6.51 ng/mL.

For B7, the concentration for a half-maximal effect (EC50) was determined as 124 ng/mL.

B8 came in with an EC50 of 5.66 ng/mL.

Consider B9, for which the response was half-maximal at 1.95 ng/mL (EC50).

Regarding B13, the EC50 is 3.42 ng/mL and 2.91 ng/mL and 2.74 ng/mL.

In turn, B10 displayed a concentration for a half-maximal effect (EC50) of 7.28 ng/mL.

In another assay the target is T4, recombinant CD3D&E protein (human CD3-his tag) (human, UniProt P04234 22-105; P07766 23-126, limits assumed).
T4 construct: Analyte in Biacore; also called CD3D&E-His; CD3d&ε-His
T4 sequence (P04234 22-105 limits assumed, chain 1 of 2): as the sequence (Q95LI8 22-105, chain 2 of 2, further chain) above, with V5I, K15N, V20I, T32S, N33D, N34I, A64T, N74S, L83V counted along it
T4 sequence (P07766 23-126 limits assumed, chain 2 of 2): as the sequence (P07766 23-126 limits assumed, chain 1 of 2) above
Nature of the assay: SPR Biacore, Ab captured on Protein A. In general terms: Surface plasmon resonance follows binding to a sensor surface in real time, without labels.
The Kd is the constant that tells how readily two partners part at equilibrium. What is called koff is the first-order rate constant of dissociation. A word on the kon: it is a measure of how fast the partners come together. Consider B11, for which the dissociation constant (Kd) came out at 6.34 nM, the koff is 0.000442 s⁻¹ and the association rate constant (kon) is 69700 M⁻¹ s⁻¹.

As to B1, the Kd was found to be 6.89 nM, the dissociation rate constant (koff) is 0.00292 s⁻¹ and the association rate constant (kon) worked out at 424000 M⁻¹ s⁻¹.

On to B12, for which the Kd came out at 36.1 nM, the koff is 0.00207 s⁻¹ and the kon worked out at 57200 M⁻¹ s⁻¹.

With B13, the Kd came to 8.69 nM, the off-rate constant (koff) is 0.000694 s⁻¹ and the kon worked out at 79900 M⁻¹ s⁻¹.

In another assay the target is T4, recombinant CD3D&E protein (human …). Nature of the assay: SPR Biacore, Ab captured on Protein A. The source holds these as a separate data set.
On to B11, for which the Kd was determined as 6.34 nM, the koff was 0.000442 s⁻¹ and the kon is 69700 M⁻¹ s⁻¹.

On to B2, for which the Kd is 51.2 nM, the koff amounted to 0.00286 s⁻¹ and the on-rate constant (kon) turned out to be 55900 M⁻¹ s⁻¹.

For B12, the Kd came out at 36.1 nM, the off-rate constant (koff) was 0.00207 s⁻¹ and the kon amounted to 57200 M⁻¹ s⁻¹.

For the molecule B3, the dissociation constant Kd came to 18 nM, the koff is 0.00667 s⁻¹ and the on-rate constant (kon) was 370000 M⁻¹ s⁻¹.

In the case of B4, the Kd was 62.1 nM, the koff is 0.00593 s⁻¹ and the association rate constant (kon) came to 95400 M⁻¹ s⁻¹.

Take B5: the Kd was 43.6 nM, the koff worked out at 0.00307 s⁻¹ and the kon amounted to 70400 M⁻¹ s⁻¹.

Consider B6, for which the Kd amounted to 53.5 nM, the koff was found to be 0.0152 s⁻¹ and the association rate constant (kon) is 285000 M⁻¹ s⁻¹.

Take B7: the dissociation constant (Kd) is 12.6 nM, the koff amounted to 0.00354 s⁻¹ and the kon amounted to 280000 M⁻¹ s⁻¹.

Take B8: the Kd is 79.2 nM, the off-rate (koff) is 0.0187 s⁻¹ and the kon was 236000 M⁻¹ s⁻¹.

With B9, the Kd was determined as 51.4 nM, the koff worked out at 0.00291 s⁻¹ and the kon amounted to 56600 M⁻¹ s⁻¹.

Consider B13, for which the Kd is 8.69 nM, the koff came to 0.000694 s⁻¹ and the kon amounted to 79900 M⁻¹ s⁻¹.

Turning to B10, the dissociation constant (Kd) is 95.6 nM, the koff worked out at 0.0165 s⁻¹ and the kon turned out to be 173000 M⁻¹ s⁻¹.

A further assay addresses T1, human CD3 on cells (human PBMC; Jurkat …). The experiment in a line: FACS on human PBMC, PE anti-human IgG Fc secondary, geometric mean fluorescence.
What is called EC50 (read off the curve) is the concentration that produces a half-maximal response. The low end stands for higher potency in that assay, the high end for lower potency in that assay. For B1, the 50% effective concentration (EC50 (read off the curve)) is roughly 1 nM.

The target in another assay is T5, cynomolgus CD3 on cynomolgus PBMC (cynomolgus, UniProt Q95LI5 22-198; Q95LI8 22-171; Q95LI7 23-181).
T5 construct: whole, on cells; Native CD3 complex on cynomolgus T cells; also called cyno PBMC; cynoPBMCs
T5 sequence (Q95LI5 22-198, chain 1 of 3): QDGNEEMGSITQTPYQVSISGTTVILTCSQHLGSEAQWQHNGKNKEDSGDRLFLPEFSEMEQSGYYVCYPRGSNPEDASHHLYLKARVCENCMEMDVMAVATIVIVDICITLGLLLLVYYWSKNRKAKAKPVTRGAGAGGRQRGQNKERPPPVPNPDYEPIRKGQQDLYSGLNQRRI
T5 sequence (Q95LI8 22-171, chain 2 of 3): as the sequence (P04234 22-171, chain 2 of 3) above, with I5V, N15K, I20V, S32T, D33N, I34N, T64A, S74N, V83L, H141R counted along it
T5 sequence (Q95LI7 23-181, chain 3 of 3): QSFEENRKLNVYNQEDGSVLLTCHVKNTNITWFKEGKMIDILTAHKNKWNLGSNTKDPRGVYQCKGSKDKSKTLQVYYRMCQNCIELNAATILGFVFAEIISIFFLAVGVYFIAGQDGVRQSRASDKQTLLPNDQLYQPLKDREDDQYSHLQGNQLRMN
The experiment in a line: FACS on cynomolgus PBMC, PE anti-human IgG Fc secondary, geometric mean fluorescence.
Regarding B11, the binding result is on record as “binds”.

B1: the binding result was “binds”.

On to B12, for which the binding result is on record as “binds”.

For B13, the binding result is “binds”.
